T1: FcgRIIaH (human, UniProt P12318 34-217)
T1 construct: extracellular domain; also called FcγRIIa H; FcgRIIa type H; not shown: His tag attached to the C terminus
T1 sequence (looked up): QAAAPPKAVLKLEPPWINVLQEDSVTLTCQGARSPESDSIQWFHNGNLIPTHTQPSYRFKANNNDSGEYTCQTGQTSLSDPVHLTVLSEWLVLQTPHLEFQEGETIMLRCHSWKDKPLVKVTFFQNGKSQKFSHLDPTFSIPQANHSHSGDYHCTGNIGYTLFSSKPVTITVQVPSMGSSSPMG

T2: FcgRIIaR (human, UniProt P12318 34-217)
T2 construct: extracellular domain; also called FcγRIIa R; FcgRIIa type R; not shown: His tag attached to the C terminus
T2 sequence (looked up): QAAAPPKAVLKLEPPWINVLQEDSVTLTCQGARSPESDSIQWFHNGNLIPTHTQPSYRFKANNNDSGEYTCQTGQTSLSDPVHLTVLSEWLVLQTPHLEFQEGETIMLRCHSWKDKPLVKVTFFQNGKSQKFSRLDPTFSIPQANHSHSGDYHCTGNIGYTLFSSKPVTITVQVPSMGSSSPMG

T3: FcgRIIb (human, UniProt P31994 43-217)
T3 construct: extracellular domain; also called FcγRIIb; 2b; not shown: His tag attached to the C terminus
T3 sequence (looked up): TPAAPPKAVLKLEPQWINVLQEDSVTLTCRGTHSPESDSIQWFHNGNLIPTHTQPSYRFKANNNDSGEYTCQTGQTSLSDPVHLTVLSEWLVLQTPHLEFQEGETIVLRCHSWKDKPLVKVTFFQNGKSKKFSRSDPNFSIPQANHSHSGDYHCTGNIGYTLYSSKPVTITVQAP


Columns and labels:
Test in all cases: SPR (Biacore); KD of H240-Kn033/H240-Hl033/L73-k0 divided by KD of this variant
FcgRIIaH = molecular target: T1, FcgRIIaH
FcgRIIIaF = molecular target: T4, FcgRIIIaF (human, UniProt P08637 17-208)
T4 construct: extracellular domain; also called FcγRIIIa F; 3aF; not shown: His tag attached to the C terminus
T4 sequence (P08637 17-208): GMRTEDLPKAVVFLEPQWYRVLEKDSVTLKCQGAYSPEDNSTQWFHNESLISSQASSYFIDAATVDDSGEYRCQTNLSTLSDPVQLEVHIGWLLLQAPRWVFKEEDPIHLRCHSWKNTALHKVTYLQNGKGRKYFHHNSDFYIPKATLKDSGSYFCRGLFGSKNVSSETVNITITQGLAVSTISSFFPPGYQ

FcgRIIaR = molecular target: T2, FcgRIIaR
FcgRIIIaV = molecular target: T5, FcgRIIIaV (human, UniProt P08637 17-208)
T5 construct: extracellular domain; also called FcγRIIIa V; 3aV; not shown: His tag attached to the C terminus
T5 sequence (P08637 17-208 F176V limits assumed): as the sequence (P08637 17-208) above, with F160V counted along it

FcgRIIb = molecular target: T3, FcgRIIb

Binder	fold 2aH (FcgRIIaH) [fold]	fold 3aF (FcgRIIIaF) [fold]	fold 2aR (FcgRIIaR) [fold]	fold 3aV (FcgRIIIaV) [fold]	fold 2b (FcgRIIb) [fold]
H240-Kn201/H240-Hl076/L73-k0 (antibody, human IgG1, kappa, Anti-epiregulin heterodimerized IgG1, knobs-into-holes) heavy 1: QDQLVQSGAEVKKPGASVKVSCKASGFNIKDTYIQWVRQAPGQGLEWMGRIDPLRKQTKYREKFEGRVTITADTSTNTAYMELSSLRSEDTAVYYCVRSGREFDYWGQGTLVTVSSASTKGPSVFPLAPSSKSTSGGTAALGCLVKDYFPEPVTVSWNSGALTSGVHTFPAVLQSSGLYSLSSVVTVPSSSLGTQTYICNVNHKPSNTKVDKKVEPKSCDKTHTCPPCPAPEFQWGPMVFLFPPKPKDTLMISRTPEVTCVVVDVSDEEPEVKFNWYVDGVEVHNAKTKPREEQYNATYRVVSVLTVLHQDWLNGKEYKCKVSNKALPAPIEKTISKAKGQPREPQVCTLPPSRDELTKNQVSLWCLVKGFYPSDIAVEWESNGQPENNYKTTPPVLDSDGSFFLYSKLTVDKSRWQQGNVFSCSVMHEALHNHYTQKSLSLSP heavy 2: QDQLVQSGAEVKKPGASVKVSCKASGFNIKDTYIQWVRQAPGQGLEWMGRIDPLRKQTKYREKFEGRVTITADTSTNTAYMELSSLRSEDTAVYYCVRSGREFDYWGQGTLVTVSSASTKGPSVFPLAPSSKSTSGGTAALGCLVKDYFPEPVTVSWNSGALTSGVHTFPAVLQSSGLYSLSSVVTVPSSSLGTQTYICNVNHKPSNTKVDKKVEPKSCDKTHTCPPCPAPELLGGPSVFLFPPKPKDTLMISRTPEVTCVVVDVSHEEPEVKFNWYVDGVEVHNAKTKPREEQYNSTYRVVSVLTVLHQDWLNGKEYKCKVSNDALPMPIEETISKAKGQPREPQVYTLPPSRCELTKNQVSLSCAVKGFYPSDIAVEWESNGQPENNYKTTPPVLDSDGSFFLVSKLTVDKSRWQQGNVFSCSVMHEALHNHYTQKSLSLSP light: DIQMTQSPSSLSASVGDRVTITCRASQDIHKYIAWYQQKPGQAPRLLIQYTSTLQPGVPSRFSGSGSGTDYTFTISSLQPEDIATYYCLQYEQLRTFGGGTKVEIKRTVAAPSVFIFPPSDEQLKSGTASVVCLLNNFYPREAKVQWKVDNALQSGNSQESVTEQDSKDSTYSLSSTLTLSKADYEKHKVYACEVTHQGLSSPVTKSFNRGEC	3.7	161	1	133	0.6
H240-Kn202/H240-Hl076/L73-k0 (antibody, human IgG1, kappa, Anti-epiregulin heterodimerized IgG1, knobs-into-holes) heavy 1: QDQLVQSGAEVKKPGASVKVSCKASGFNIKDTYIQWVRQAPGQGLEWMGRIDPLRKQTKYREKFEGRVTITADTSTNTAYMELSSLRSEDTAVYYCVRSGREFDYWGQGTLVTVSSASTKGPSVFPLAPSSKSTSGGTAALGCLVKDYFPEPVTVSWNSGALTSGVHTFPAVLQSSGLYSLSSVVTVPSSSLGTQTYICNVNHKPSNTKVDKKVEPKSCDKTHTCPPCPAPEEQWGPMVFLFPPKPKDTLMISRTPEVTCVVVDVSDEEPEVKFNWYVDGVEVHNAKTKPREEQYNATYRVVSVLTVLHQDWLNGKEYKCKVSNKALPAPIEKTISKAKGQPREPQVCTLPPSRDELTKNQVSLWCLVKGFYPSDIAVEWESNGQPENNYKTTPPVLDSDGSFFLYSKLTVDKSRWQQGNVFSCSVMHEALHNHYTQKSLSLSP heavy 2: QDQLVQSGAEVKKPGASVKVSCKASGFNIKDTYIQWVRQAPGQGLEWMGRIDPLRKQTKYREKFEGRVTITADTSTNTAYMELSSLRSEDTAVYYCVRSGREFDYWGQGTLVTVSSASTKGPSVFPLAPSSKSTSGGTAALGCLVKDYFPEPVTVSWNSGALTSGVHTFPAVLQSSGLYSLSSVVTVPSSSLGTQTYICNVNHKPSNTKVDKKVEPKSCDKTHTCPPCPAPELLGGPSVFLFPPKPKDTLMISRTPEVTCVVVDVSHEEPEVKFNWYVDGVEVHNAKTKPREEQYNSTYRVVSVLTVLHQDWLNGKEYKCKVSNDALPMPIEETISKAKGQPREPQVYTLPPSRCELTKNQVSLSCAVKGFYPSDIAVEWESNGQPENNYKTTPPVLDSDGSFFLVSKLTVDKSRWQQGNVFSCSVMHEALHNHYTQKSLSLSP light: DIQMTQSPSSLSASVGDRVTITCRASQDIHKYIAWYQQKPGQAPRLLIQYTSTLQPGVPSRFSGSGSGTDYTFTISSLQPEDIATYYCLQYEQLRTFGGGTKVEIKRTVAAPSVFIFPPSDEQLKSGTASVVCLLNNFYPREAKVQWKVDNALQSGNSQESVTEQDSKDSTYSLSSTLTLSKADYEKHKVYACEVTHQGLSSPVTKSFNRGEC	1.4	181	1.2	126	0.8

The next lines start with the values.

fold 2aH (FcgRIIaH) [fold]	fold 3aF (FcgRIIIaF) [fold]	fold 2aR (FcgRIIaR) [fold]	fold 3aV (FcgRIIIaV) [fold]	fold 2b (FcgRIIb) [fold]	Binder
10.6	85.3	16.1	63.2	12.2	H240-Kn203/H240-Hl068/L73-k0 (antibody, human IgG1, kappa, Anti-epiregulin heterodimerized IgG1, knobs-into-holes) heavy 1: QDQLVQSGAEVKKPGASVKVSCKASGFNIKDTYIQWVRQAPGQGLEWMGRIDPLRKQTKYREKFEGRVTITADTSTNTAYMELSSLRSEDTAVYYCVRSGREFDYWGQGTLVTVSSASTKGPSVFPLAPSSKSTSGGTAALGCLVKDYFPEPVTVSWNSGALTSGVHTFPAVLQSSGLYSLSSVVTVPSSSLGTQTYICNVNHKPSNTKVDKKVEPKSCDKTHTCPPCPAPEFYWGPMVFLFPPKPKDTLMISRTPEVTCVVVDVSDEDPEVKFNWYVDGVEVHNAKTKPREEQYNATYRVVSVLTVLHQDWLNGKEYKCKVSNKDLPAPIEKTISKAKGQPREPQVCTLPPSRDELTKNQVSLWCLVKGFYPSDIAVEWESNGQPENNYKTTPPVLDSDGSFFLYSKLTVDKSRWQQGNVFSCSVMHEALHNHYTQKSLSLSP heavy 2: QDQLVQSGAEVKKPGASVKVSCKASGFNIKDTYIQWVRQAPGQGLEWMGRIDPLRKQTKYREKFEGRVTITADTSTNTAYMELSSLRSEDTAVYYCVRSGREFDYWGQGTLVTVSSASTKGPSVFPLAPSSKSTSGGTAALGCLVKDYFPEPVTVSWNSGALTSGVHTFPAVLQSSGLYSLSSVVTVPSSSLGTQTYICNVNHKPSNTKVDKKVEPKSCDKTHTCPPCPAPELLGGPSVFLFPPKPKDTLMISRTPEVTCVVVDVSHEEPEVKFNWYVDGVEVHNAKTKPREEQYNSTYRVVSVLTVLHQDWLNGKEYKCKVSNDALPKPIEETISKAKGQPREPQVYTLPPSRCELTKNQVSLSCAVKGFYPSDIAVEWESNGQPENNYKTTPPVLDSDGSFFLVSKLTVDKSRWQQGNVFSCSVMHEALHNHYTQKSLSLSP light: DIQMTQSPSSLSASVGDRVTITCRASQDIHKYIAWYQQKPGQAPRLLIQYTSTLQPGVPSRFSGSGSGTDYTFTISSLQPEDIATYYCLQYEQLRTFGGGTKVEIKRTVAAPSVFIFPPSDEQLKSGTASVVCLLNNFYPREAKVQWKVDNALQSGNSQESVTEQDSKDSTYSLSSTLTLSKADYEKHKVYACEVTHQGLSSPVTKSFNRGEC
0.7	20.7	1.2	6.5	2.5	H240-Kn204/H240-Hl211/L73-k0 (antibody, human IgG1, kappa, Anti-epiregulin heterodimerized IgG1, knobs-into-holes; L234Y/K290Y/Y296W in one H chain, S239D/A330M/K334V in the other) heavy 1: QDQLVQSGAEVKKPGASVKVSCKASGFNIKDTYIQWVRQAPGQGLEWMGRIDPLRKQTKYREKFEGRVTITADTSTNTAYMELSSLRSEDTAVYYCVRSGREFDYWGQGTLVTVSSASTKGPSVFPLAPSSKSTSGGTAALGCLVKDYFPEPVTVSWNSGALTSGVHTFPAVLQSSGLYSLSSVVTVPSSSLGTQTYICNVNHKPSNTKVDKKVEPKSCDKTHTCPPCPAPEYLGGPSVFLFPPKPKDTLMISRTPEVTCVVVDVSHEDPEVKFNWYVDGVEVHNAKTYPREEQWNSTYRVVSVLTVLHQDWLNGKEYKCKVSNKALPAPIEKTISKAKGQPREPQVCTLPPSRDELTKNQVSLWCLVKGFYPSDIAVEWESNGQPENNYKTTPPVLDSDGSFFLYSKLTVDKSRWQQGNVFSCSVMHEALHNHYTQKSLSLSP heavy 2: QDQLVQSGAEVKKPGASVKVSCKASGFNIKDTYIQWVRQAPGQGLEWMGRIDPLRKQTKYREKFEGRVTITADTSTNTAYMELSSLRSEDTAVYYCVRSGREFDYWGQGTLVTVSSASTKGPSVFPLAPSSKSTSGGTAALGCLVKDYFPEPVTVSWNSGALTSGVHTFPAVLQSSGLYSLSSVVTVPSSSLGTQTYICNVNHKPSNTKVDKKVEPKSCDKTHTCPPCPAPELLGGPDVFLFPPKPKDTLMISRTPEVTCVVVDVSHEDPEVKFNWYVDGVEVHNAKTKPREEQYNSTYRVVSVLTVLHQDWLNGKEYKCKVSNKALPMPIEVTISKAKGQPREPQVYTLPPSRCELTKNQVSLSCAVKGFYPSDIAVEWESNGQPENNYKTTPPVLDSDGSFFLVSKLTVDKSRWQQGNVFSCSVMHEALHNHYTQKSLSLSP light: DIQMTQSPSSLSASVGDRVTITCRASQDIHKYIAWYQQKPGQAPRLLIQYTSTLQPGVPSRFSGSGSGTDYTFTISSLQPEDIATYYCLQYEQLRTFGGGTKVEIKRTVAAPSVFIFPPSDEQLKSGTASVVCLLNNFYPREAKVQWKVDNALQSGNSQESVTEQDSKDSTYSLSSTLTLSKADYEKHKVYACEVTHQGLSSPVTKSFNRGEC

Reference: patent publication US20150344570A1 (published 2015)
